The values below come from PMC5797297, “92R Monoclonal Antibody Inhibits Human CCR9^+ Leukemia Cells Growth in NSG Mice Xenografts” (Frontiers in Immunology, 2018).

The target of experiment [1] is T1, peptide hCCR9 (10–30) (Homo sapiens (Human)., UniProt P51686-1).
T1 construct: human CCR9 isoform A, residues 10-30; source: synthetic peptide
T1 chain: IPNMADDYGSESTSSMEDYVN
Kind of experiment: SPR; competition: biotin-K-hCCR9A(2–19) captured on a streptavidin (SA) chip; mAb at 10 nM preincubated 30 min with competitor peptide (0.01–1 µM; 1 µM in Figure 6C,D); HBS-EP pH 7.4. To be noted: both partners purified.

Experiment [2] addresses T2, peptide hCCR9 (13–30), corresponding to the N-terminus of the B isoform (Homo sapiens, UniProt P51686-1).
T2 construct: human CCR9, residues 13-30 on the numbering of isoform A (the B isoform starts in M13 of hCCR9-A); source: synthetic peptide
T2 chain: MADDYGSESTSSMEDYVN
Described as above. Particulars: both partners purified.

For experiment [3], the target named is T3, synthetic peptide hCCR9A aa 2–22 with an additional N-terminal cysteine (Homo sapiens (Human).).
T3 construct: additional cysteine residue at the N terminus; human CCR9 isoform A, residues 2-22; Amine-coupled to a CM5 chip for the kinetic SPR; also called hCCR9 (2–22); source: synthetic peptide
T3 chain: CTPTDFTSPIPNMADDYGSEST
Kind of experiment: SPR; Biacore 3000; Cys-hCCR9A(2–22) peptide amine-coupled at low density to a CM5 chip; mAb as analyte at 0.41 to 33 nM; HBS-EP pH 7.4, 25°C, 30 µl/min; bivalent analyte model; apparent. Particulars: both partners purified. On the technique in general: Surface plasmon resonance follows binding to a sensor surface in real time, without labels.

For experiment [4], the target named is T4, hCCR9(2–22) synthetic peptide (coat of the ELISA; competitor in SPR) (Homo sapiens, CCR9 isoform A, UniProt P51686).
T4 construct: human CCR9 isoform A, residues 2-22; May be the same peptide as m5; also called hCCR9 (aa 2–22) synthetic peptide; peptide hCCR9 (2–22); source: synthetic peptide
T4 chain: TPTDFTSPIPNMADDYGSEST
The experiment can be described thus: ELISA; competitive ELISA: hCCR9(2–22) peptide coated at 1 µg/ml in PBS overnight at 4°C; biotin-labeled mAb mixed with unlabeled mAb (2 µg/ml in PBS–0.5% BSA), 1 h at room temperature; peroxidase-labeled streptavidin. To be noted: both partners purified. For orientation: In an ELISA, binding on a coated surface is turned into a signal by an enzyme label.

In experiment [5] the target is T5, human chemokine receptor CCR9, A isoform, on stably transfected HEK-293 cells (Homo sapiens (Human)., UniProt P51686-1).
T5 construct: also called hCCR9-A; hCCR9-HEK-293; source: HEK-293, stably transfected (pCIneo-hCCR9), on cells
T5 sequence (P51686 whole entry, canonical isoform): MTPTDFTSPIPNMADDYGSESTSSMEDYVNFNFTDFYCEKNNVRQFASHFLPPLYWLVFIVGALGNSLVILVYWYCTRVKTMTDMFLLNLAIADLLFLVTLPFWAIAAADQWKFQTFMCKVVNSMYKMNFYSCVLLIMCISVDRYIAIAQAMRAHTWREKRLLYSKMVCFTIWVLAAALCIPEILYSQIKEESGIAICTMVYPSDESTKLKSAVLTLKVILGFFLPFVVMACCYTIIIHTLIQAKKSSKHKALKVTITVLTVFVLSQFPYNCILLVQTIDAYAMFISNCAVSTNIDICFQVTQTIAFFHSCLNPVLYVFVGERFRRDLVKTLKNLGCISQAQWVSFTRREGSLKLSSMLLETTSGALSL
The experiment can be described thus: flow cytometry on cells; 2 x 10^5 cells blocked with 40 µg/ml rat IgG, incubated with the primary mAb 30 min at 4°C in PBS pH 7.4 with 0.5% BSA, 1% FBS, 0.1% sodium azide; revealed with FITC- or PE-goat F(ab')2 anti-mouse IgG. To be noted: one partner purified.

Experiment [6] addresses T6, endogenous CCR9 on MOLT-4 human T-ALL cells (Homo sapiens (Human)., UniProt P51686).
T6 construct: human CCR9 as expressed by MOLT-4 cells; also called CCR9^+ MOLT-4 cells; source: endogenous, on MOLT-4 cells
The description is as above. To be noted: one partner purified.

Changes are numbered by the printed parent chain.

T6 sequence (P51686 whole entry): as the sequence (P51686 whole entry, canonical isoform) above

B1: 92R, mouse anti-human CCR9 monoclonal antibody (IgG2a) (antibody, V domains shown)
VH: EVKLEESGGGLVQPGGSMKLSCVASGFTFNKFWMNWVRQSPEKGLEWVAEIRLKSNNYATHYAESVKGRFTISRDDSKSSVYLQMNNLRAEDTGIYYCASDGWFAYWGQGTLVTVSA
VL: DVVMTQTPLSLPVSLGDQASISCRSSQSLVHSNGNTYLNWCLQRPGQSPKSLIYKVSNRFSGVPDRFSGSGSGTDFTLKISRVEAEDLGVYFCSQSTHFPRTFGGGTKLEIK
notes: heavy chain variable region of 92R; mouse IgG2a heavy chain constant region (isotype as stated); light chain variable region of 92R; light chain constant region; IgG2a; also called 92R mAb; anti-hCCR9 92R; source: mouse hybridoma, mAb purified from culture supernatants
For the molecule B1, the binding result in experiment [1] is listed as “binds”; in experiment [2] it was “no binding (tested: 1 µM)”; in experiment [4], “binds”; in experiment [5] it was “binds”; in experiment [6], “binds”. In experiment [3], the Kd was 8.9 nM.

B2: 91R, mouse anti-human CCR9 monoclonal antibody (IgG2b) (antibody, V domains shown)
VH: B1 VH with E6D, G16R, N30S, K31N, A90T, A99T
VL: DVVMTQTPLSLPVSLGDQTSISCRSSQSLLHSNGNTYVQWYLRKPGQSPKLLIYKVSNRFPGVPDRFSGSGSGTDFTFKISRVEAEDLGVYFCAQSTHVPRTFGGGTKLEIK
notes: heavy chain variable region of 91R; mouse IgG2b heavy chain constant region (isotype as stated); light chain variable region of 91R; light chain constant region; IgG2b; also called 91R mAb; anti-hCCR9 91R; source: mouse hybridoma, mAb purified from culture supernatants
With B2, the results for the binding result in experiment [2], in experiment [4] and in experiment [6] were “no binding (tested: 1 µM)”, “binds” and “binds”, respectively. Besides, in experiment [3], the Kd amounted to 3.6 nM.
